From article PMC4267727 come the findings set out here.

The assay addresses E2 wild-type (E2wt) scaffold protein without an HIV-1 N-terminal fusion (Geobacillus stearothermophilus). In words: SEC; Superdex200 gel filtration of E2wt in Solubility Buffer 2.2 (1x PBS, 50 mM L-Glutamine, 50 mM NaCl, 250 mM L-Arginine), 1 ml/min. (In general: Size exclusion chromatography separates by hydrodynamic size, large species first.)

By stoichiometry N is commonly meant a count of units in the complex or per binding partner. In turn, “E2 wild-type (E2wt) scaffold protein without an HIV-1 N-terminal fusion (domain or fragment)” had a stoichiometry N of 60.
